Molecular target: T1, human adenosine deaminase 2 (ADA2) (Homo sapiens, UniProt Q9NZK5)
T1 construct: adenosine deaminase 2 (ADA2), human, recombinant, produced in S2 insect cells; also called hADA2; recombinant ADA2
Experiment: BLI; apparent dissociation constant; which partner was immobilised and the conditions are not told
Conditions: both partners purified

T1 sequence (Q9NZK5 30-511): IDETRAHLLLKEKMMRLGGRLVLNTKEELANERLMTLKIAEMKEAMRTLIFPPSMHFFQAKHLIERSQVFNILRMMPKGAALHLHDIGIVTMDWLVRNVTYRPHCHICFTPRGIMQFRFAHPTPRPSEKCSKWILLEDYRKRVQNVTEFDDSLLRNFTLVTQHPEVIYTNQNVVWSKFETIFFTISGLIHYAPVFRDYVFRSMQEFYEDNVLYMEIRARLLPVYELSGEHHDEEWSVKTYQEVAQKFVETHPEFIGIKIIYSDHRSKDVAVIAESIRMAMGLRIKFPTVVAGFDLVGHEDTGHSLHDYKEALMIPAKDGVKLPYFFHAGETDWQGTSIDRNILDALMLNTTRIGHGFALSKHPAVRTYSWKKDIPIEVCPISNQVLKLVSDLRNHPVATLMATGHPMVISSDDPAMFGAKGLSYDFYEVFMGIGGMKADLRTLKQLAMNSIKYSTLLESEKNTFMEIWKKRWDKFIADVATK

B1: H11 anti-ADA2 scFv-AP (single-chain antibody fused with bacterial alkaline phosphatase) (scFv, V domains shown)
VH: EVQLLESGGGLVQPGGSLRLSCAASGFTFSSYSMHWVRQAPGKGLEWVSSIWGVNGETDYADSVKGRFTISRDNSKNTLYLQMNSLRAEDTAVYYCAADWSLDYWGQGTLVTVSS
VL: EIVLTQSPGTLSLSPGERATLSCRASQSVSSSYLAWYQQKPGQAPRLLIYGASSRATGVPDRFSGSGSGTDFTLTISRLEPEDFAVYYCQQSSSYPWTFGQGTKVEIK
notes: The clone name H11 appears only in the ELISA methods; also called H11 scFv-AP; sc-anti-ADA2 alkaline phosphatase fusion protein; source: E. coli XL1-Blue (pAK600H vector), purified (Nickel Sepharose HiTrap / Ni-NTA Chelating Sepharose)
**Q.** With B1 as the binder, how does the Kd read?
**A.** < 10 nM

From PMC12390807, “Developing and validating anti-ADA2 single-chain antibodies coupled to alkaline phosphatase for diagnosing pleural tuberculosis” (Frontiers in Immunology, 2025)
